B1: EHEE_rd2_0191 (parent)
chain: TTEYTFTDDEEARRAIEELKKRGLTFRYEKHGTTWRVRVD

Variants of: B1
Assay: folding stability dG (cDNA display proteolysis); higher = more stable
Conditions: PBS, room temperature

Variant | folding stability dG [kcal/mol]
TTEYTFTDDEEARRAIEELKKVGLTFRYEKHGTTWRVRVD | 1.23
TTEYTFTDDEEARRAIEELKKFGLTFRYEKHGTTWRVRVD | 1.55
TTEYTFTDDEEARRAIEELKKIGLTFRYEKHGTTWRVRVD | 1.52
TTEYTFTDDEEARRAIEELKKDGLTFRYEKHGTTWRVRVD | 1.03
TTEYTFTDDEEARRAIEELKKTGLTFRYEKHGTTWRVRVD | 1.56
TTEYTFTDDEEARRAIEELKKMGLTFRYEKHGTTWRVRVD | 2.19
TTEYTFTDDEEARRAIEELKKHGLTFRYEKHGTTWRVRVD | 1.64
TTEYTFTDDEEARRAIEELKKYGLTFRYEKHGTTWRVRVD | 1.55
TTEYTFTDDEEARRAIEELKKEGLTFRYEKHGTTWRVRVD | 1.35
TTEYTFTDDEEARRAIEELKKAGLTFRYEKHGTTWRVRVD | 2.1
TTEYTFTDDEEARRAIEELKKKGLTFRYEKHGTTWRVRVD | 2.02
TTEYTFTDDEEARRAIEELKKGGLTFRYEKHGTTWRVRVD | 1.28
TTEYTFTDDEEARRAIEELKKLGLTFRYEKHGTTWRVRVD | 2.25
TTEYTFTDDEEARRAIEELKKWGLTFRYEKHGTTWRVRVD | 1.78
TTEYTFTDDEEARRAIEELKKNGLTFRYEKHGTTWRVRVD | 1.69
TTEYTFTDDEEARRAIEELKKSGLTFRYEKHGTTWRVRVD | 1.93
TTEYTFTDDEEARRAIEELKKQGLTFRYEKHGTTWRVRVD | 2.1
TTEYTFTDDEEARRAIEELKMRGLTFRYEKHGTTWRVRVD | 1.9
TTEYTFTDDEEARRAIEELKYRGLTFRYEKHGTTWRVRVD | 1.49
TTEYTFTDDEEARRAIEELKRRGLTFRYEKHGTTWRVRVD | 2.35
TTEYTFTDDEEARRAIEELKERGLTFRYEKHGTTWRVRVD | 1.71

Variant | folding stability dG [kcal/mol]
TTEYTFTDDEEARRAIEELKCRGLTFRYEKHGTTWRVRVD | 2.13
TTEYTFTDDEEARRAIEELKARGLTFRYEKHGTTWRVRVD | 2.12
TTEYTFTDDEEARRAIEELKLRGLTFRYEKHGTTWRVRVD | 1.94
TTEYTFTDDEEARRAIEELKTRGLTFRYEKHGTTWRVRVD | 1.82
TTEYTFTDDEEARRAIEELKGRGLTFRYEKHGTTWRVRVD | 1.45
TTEYTFTDDEEARRAIEELKDRGLTFRYEKHGTTWRVRVD | 1.32
TTEYTFTDDEEARRAIEELKHRGLTFRYEKHGTTWRVRVD | 1.58
TTEYTFTDDEEARRAIEELKSRGLTFRYEKHGTTWRVRVD | 1.94
TTEYTFTDDEEARRAIEELKWRGLTFRYEKHGTTWRVRVD | 1.37
TTEYTFTDDEEARRAIEELKQRGLTFRYEKHGTTWRVRVD | 1.81
TTEYTFTDDEEARRAIEELKFRGLTFRYEKHGTTWRVRVD | 1.63
TTEYTFTDDEEARRAIEELKVRGLTFRYEKHGTTWRVRVD | 1.66
TTEYTFTDDEEARRAIEELKIRGLTFRYEKHGTTWRVRVD | 1.79
TTEYTFTDDEEARRAIEELKNRGLTFRYEKHGTTWRVRVD | 1.78
TTEYTFTDDEEARRAIEELKKRGLFFRYEKHGTTWRVRVD | 2.15
TTEYTFTDDEEARRAIEELKKRGLMFRYEKHGTTWRVRVD | 1.95
TTEYTFTDDEEARRAIEELKKRGLKFRYEKHGTTWRVRVD | 2.25
TTEYTFTDDEEARRAIEELKKRGLSFRYEKHGTTWRVRVD | 2.29
TTEYTFTDDEEARRAIEELKKRGLPFRYEKHGTTWRVRVD | 1.84
TTEYTFTDDEEARRAIEELKKRGLYFRYEKHGTTWRVRVD | 2.07
TTEYTFTDDEEARRAIEELKKRGLAFRYEKHGTTWRVRVD | 1.95

Variant | folding stability dG [kcal/mol]
TTEYTFTDDEEARRAIEELKKRGLEFRYEKHGTTWRVRVD | 1.58
TTEYTFTDDEEARRAIEELKKRGLVFRYEKHGTTWRVRVD | 2.08
TTEYTFTDDEEARRAIEELKKRGLNFRYEKHGTTWRVRVD | 2.12
TTEYTFTDDEEARRAIEELKKRGLLFRYEKHGTTWRVRVD | 1.97
TTEYTFTDDEEARRAIEELKKRGLIFRYEKHGTTWRVRVD | 2.14
TTEYTFTDDEEARRAIEELKKRGLRFRYEKHGTTWRVRVD | 2.27
TTEYTFTDDEEARRAIEELKKRGLWFRYEKHGTTWRVRVD | 2.28
TTEYTFTDDEEARRAIEELKKRGLQFRYEKHGTTWRVRVD | 2.01
TTEYTFTDDEEARRAIEELKKRGLDFRYEKHGTTWRVRVD | 1.46
TTEYTFTDDEEARRAIEELKKRGLHFRYEKHGTTWRVRVD | 2.25
TTEYTFTDDEEARRAIEELKKRGLGFRYEKHGTTWRVRVD | 1.49
TTEYTFTDDEEARRAIEELKKRGLTARYEKHGTTWRVRVD | 0.99
TTEYTFTDDEEARRAIEELKKRGLTYRYEKHGTTWRVRVD | 1.73
TTEYTFTDDEEARRAIEELKKRGLTHRYEKHGTTWRVRVD | 0.04
TTEYTFTDDEEARRAIEELKKRGLTWRYEKHGTTWRVRVD | 0.681
TTEYTFTDDEEARRAIEELKKRGLTTRYEKHGTTWRVRVD | 0.447
TTEYTFTDDEEARRAIEELKKRGLTPRYEKHGTTWRVRVD | 1.41
TTEYTFTDDEEARRAIEELKKRGLTMRYEKHGTTWRVRVD | 0.795
TTEYTFTDDEEARRAIEELKKRGLTLRYEKHGTTWRVRVD | 1.61
TTEYTFTDDEEARRAIEELKKRGLTVRYEKHGTTWRVRVD | 2.73
TTEYTFTDDEEARRAIEELKKRGLTIRYEKHGTTWRVRVD | 2.04

— the MegaScale stability set (Tsuboyama et al. 2023)
